In US20090022717A1 (CHEMOCENTRYX, published 2009):

B1: monoclonal antibody 6E10 (antibody, V domains shown)
VH: EVKLDETGGGLVQPGRPMKLSCVASGFTFSDYWMNWVRQSPEKGLEWVGQIRNKPYNYETYYSDSVKGRFTISRDDSKSSVYLQMNNLRTEDTGIYYCTSLRYWGQGTLVTVSA
VL: DIVMTQSPSSLTVTAGEKVTMSCKSSHSLLNSGIQKNFLTWYQQKPGQPPKVLIYWAFTRESGVPERFTGSGSGTDFTLTISSVQAEDLAVYYCQSDYTYPFTFGSGTKLEIKR
notes: Mouse hybridoma monoclonal raised by gene gun immunisation with CXCR7 cDNA
B2: monoclonal antibody 11G8 (antibody, V domains shown)
VH: EVKLVESGGDLVQPGGSLKLSCATSGFTFSDYYMFWVRQTPEKRLEWVAYITNGGDRSYYSDTVTGRFIISRDNAKNTLYLQMSRLKSEDTAMYYCARQGNWAAWFVYWGQGTLVTVSA
VL: DVLMTQTPLSLPVSLGDQASISCRSSHYIVHSDGNTYLEWYLQKPGQSPKLLIYKVSNRFSGVPDRFSGSGSGTDFTLKISRVEAEDLGIYYCFQGSHVPLTFGAGTKLELKR
notes: as for B1

Experiments:
monoclonal antibody 11G8 [1] = molecular target: B2; test: peptide pre-incubated with antibody, then FACS staining of CXCR7-expressing cells (FIG. 2, 11G8 on 435-CXCR7 cells)
Method: (§1) We have established that both 11G8 and 6E10 antibodies recognize CXCR7 receptor expressed on the surface of cells by FACS. This is represented as an increase in florescent signal (filled) over background (open line) along the X axis of FACS plot (FIG. 2). To interrogate which amino acid residues 11G8 and 6E10 recognize and bind to, a number of short peptides (0.5-5 μg) derived from the CXCR7 sequence were pre-incubated with either antibody (0.5-5 μg) in 100 μl PBS. This mixture was then incubated with 500,000 cells expressing CXCR7 for 15 minutes at room temperature. If the antibody recognized the sequence encoded by the peptide, then the peptide would effectively compete antibody away from binding to the cell associated receptor resulting in a subsequent reduction in florescence on a FACS plot. […] These readouts are exemplified in FIG. 2 with “no peptide” representing […] antibody staining, “peptide 2.2.1” representing peptide competition, and “peptide 2.3.4” representing no peptide competition. Through slight alternations of the peptide sequence in this assay, the minimal peptide sequence necessary for antibody recognition was discerned. FIG. 3 illustrates a summary of peptides that competed with either antibody 11G8 or 6E10.

monoclonal antibody 6E10 = molecular target: B1; test: peptide competition of antibody staining of CXCR7-expressing cells, FACS
Method: as §1

monoclonal antibody 11G8 [2] = molecular target: B2; test: as above
Method: as §1

CXCR2 = molecular target: T1, CXCR2 (UniProt P25025 1-360, limits assumed); test: flow cytometry on transfected HEK 293 cells
T1 construct: whole, on cells
T1 sequence (looked up): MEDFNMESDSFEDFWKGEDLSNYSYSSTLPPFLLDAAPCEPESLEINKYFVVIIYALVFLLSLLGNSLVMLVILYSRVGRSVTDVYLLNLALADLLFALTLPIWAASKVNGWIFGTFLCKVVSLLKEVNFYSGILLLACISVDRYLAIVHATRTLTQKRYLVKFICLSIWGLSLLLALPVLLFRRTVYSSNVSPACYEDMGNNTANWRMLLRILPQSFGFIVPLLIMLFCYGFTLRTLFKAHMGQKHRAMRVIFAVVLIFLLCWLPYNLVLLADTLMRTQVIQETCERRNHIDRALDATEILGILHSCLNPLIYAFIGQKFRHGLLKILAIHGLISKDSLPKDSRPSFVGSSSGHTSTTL

mouse CXCR7 = molecular target: T2, mouse CXCR7 (mouse, UniProt P56485 1-362); test: detection on mouse 4T1 mammary tumor cells and Lewis lung carcinoma cells
T2 construct: whole, on cells; Endogenous on the mouse mammary tumor line 4T1 and on Lewis lung carcinoma cells; also E13 fetal mouse sections; also called mouse homolog of CXCR7

human CXCR7 = molecular target: T3, human CXCR7 (human, UniProt P25106 1-362); test: flow cytometry on CXCR7 transfectants (HEK 293) and on HeLa and MCF-7 cells
T3 construct: also called RDC1; CCX-CKR2
T3 sequence (P25106 whole entry): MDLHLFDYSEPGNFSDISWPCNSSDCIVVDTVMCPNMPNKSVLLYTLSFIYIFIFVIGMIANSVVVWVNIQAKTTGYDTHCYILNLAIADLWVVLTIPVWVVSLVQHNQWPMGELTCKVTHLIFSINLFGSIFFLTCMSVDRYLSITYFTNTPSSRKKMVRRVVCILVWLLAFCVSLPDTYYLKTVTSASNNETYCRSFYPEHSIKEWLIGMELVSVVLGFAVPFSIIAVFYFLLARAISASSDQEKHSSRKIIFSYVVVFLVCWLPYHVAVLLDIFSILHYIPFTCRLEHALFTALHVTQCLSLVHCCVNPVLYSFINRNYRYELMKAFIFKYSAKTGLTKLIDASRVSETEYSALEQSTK

T2 sequence (P56485 whole entry): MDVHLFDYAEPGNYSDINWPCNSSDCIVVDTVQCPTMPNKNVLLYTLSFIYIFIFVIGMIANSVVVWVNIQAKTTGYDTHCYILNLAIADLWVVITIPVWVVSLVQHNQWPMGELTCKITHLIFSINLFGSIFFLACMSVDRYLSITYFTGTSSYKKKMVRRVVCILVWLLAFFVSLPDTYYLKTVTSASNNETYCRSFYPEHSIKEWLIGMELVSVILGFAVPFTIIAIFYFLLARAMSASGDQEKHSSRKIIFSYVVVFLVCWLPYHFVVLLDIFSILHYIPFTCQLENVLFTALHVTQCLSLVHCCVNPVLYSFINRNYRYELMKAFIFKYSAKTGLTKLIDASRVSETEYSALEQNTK

Binder | binding result (monoclonal antibody 6E10) | binding result (monoclonal antibody 11G8 [2]) | further results
PCNSSDCIV [peptide 2.3.4] | – | – | binding result (monoclonal antibody 11G8 [1]): no binding
WPCNSSDCIVV (also called Peptide 2.2.5) [SEQ ID NO 16] | binds | – | –
SWPCNSSDCIVV (also called Peptide 2.1.2) [SEQ ID NO 9] | binds | – | –
NWPCNSSDCIVV (also called Peptide 2.2.6) [SEQ ID NO 17] | binds | – | –
DYSEPGNFSDISWPC (also called Peptide 9C4) [SEQ ID NO 11] | – | binds | –
NFSDISWP (also called Peptide 2.3.1) [SEQ ID NO 18] | – | binds | –
FSDISWPC (also called Peptide 2.2.1) [SEQ ID NO 12] | – | binds | –
B1 | – | – | binding result (CXCR2): no binding; binding result (mouse CXCR7): binds; binding result (human CXCR7): binds
FSDISWPCNSSDCIVVD (also called Peptide 2) [SEQ ID NO 2] | binds | binds | –
DISWPCNSSDCI (also called Peptide 2.1.1) [SEQ ID NO 8] | binds | – | –
YSDINWPC (also called Peptide 2.2.3) [SEQ ID NO 14] | – | binds | –
B2 | – | – | binding result (CXCR2): no binding; binding result (mouse CXCR7): binds; binding result (human CXCR7): binds
